Source: US20100075908A1 (published 2010)
Non-standard residues stand in square brackets, D forms with d. No end group written: not given here.

B1: L-CGGGGGGRDKLGIYAHS (L-retro peptide) (peptide)
peptide: CGGGGGGRDKLGIYAHS
notes: Linker CGGGGGG followed by the reversed mimotope; L-amino acids; free peptide; also called LR-pep; LR-peptide
B2: LR100 (HPG conjugate with 100 L-retro peptides per HPG) (other)
peptide: CGGGGGGRDKLGIYAHS
modifications: also: coupled via vinyl sulfone to 500 kDa hyperbranched polyglycerol (HPG), about 100 peptides per HPG
notes: Peptide-polymer conjugate
B3: L10 (HPG conjugate with 10 L-peptides per HPG) (other)
peptide: CGGGGGGSHAYIGLKDR
modifications: also: coupled through vinyl sulfone to 500 kDa hyperbranched polyglycerol, about 10 peptides per HPG
B4: LR10 (HPG conjugate with 10 L-retro peptides per HPG) (other)
peptide: CGGGGGGRDKLGIYAHS
modifications: also: coupled through vinyl sulfone to 500 kDa hyperbranched polyglycerol, about 10 peptides per HPG
notes: Peptide-polymer conjugate
B5: fibrinogen (ligand)
chain 1: ADSGEGDFLAEGGGVRGPRVVERHQSACKDSDWPFCSDEDWNYKCPSGCRMKGLIDEVNQDFTNRINKLKNSLFEYQKNNKDSHSLTTNIMEILRGDFSSANNRDNTYNRVSEDLRSRIEVLKRKVIEKVQHIQLLQKNVRAQLVDMKRLEVDIDIKIRSCRGSCSRALAREVDLKDYEDQQKQLEQVIAKDLLPSRDRQHLPLIKMKPVPDLVPGNFKSQLQKVPPEWKALTDMPQMRMELERPGGNEITRGGSTSYGTGSETESPRNPSSAGSWNSGSSGPGSTGNRNPGSSGTGGTATWKPGSSGPGSTGSWNSGSSGTGSTGNQNPGSPRPGSTGTWNPGSSERGSAGHWTSESSVSGSTGQWHSESGSFRPDSPGSGNARPNNPDWGTFEEVSGNVSPGTRREYHTEKLVTSKGDKELRTGKEKVTSGSTTTTRRSCSKTVTKTVIGPDGHKEVTKEVVTSEDGSDCPEAMDLGTLSGIGTLDGFRHRHPDEAAFFDTASTGKTFPGFFSPMLGEFVSETESRGSESGIFTNTKESSSHHPGIAEFPSRGKSSSYSKQFTSSTSYNRGDSTFESKSYKMADEAGSEADHEGTHSTKRGHAKSRPV
chain 2: QGVNDNEEGFFSARGHRPLDKKREEAPSLRPAPPPISGGGYRARPAKAAATQKKVERKAPDAGGCLHADPDLGVLCPTGCQLQEALLQQERPIRNSVDELNNNVEAVSQTSSSSFQYMYLLKDLWQKRQKQVKDNENVVNEYSSELEKHQLYIDETVNSNIPTNLRVLRSILENLRSKIQKLESDVSAQMEYCRTPCTVSCNIPVVSGKECEEIIRKGGETSEMYLIQPDSSVKPYRVYCDMNTENGGWTVIQNRQDGSVDFGRKWDPYKQGFGNVATNTDGKNYCGLPGEYWLGNDKISQLTRMGPTELLIEMEDWKGDKVKAHYGGFTVQNEANKYQISVNKYRGTAGNALMDGASQLMGENRTMTIHNGMFFSTYDRDNDGWLTSDPRKQCSKEDGGGWWYNRCHAANPNGRYYWGGQYTWDMAKHGTDDGVVWMNWKGSWYSMRKMSMKIRPFFPQQ
chain 3: YVATRDNCCILDERFGSYCPTTCGIADFLSTYQTKVDKDLQSLEDILHQVENKTSEVKQLIKAIQLTYNPDESSKPNMIDAATLKSRKMLEEIMKYEASILTHDSSIRYLQEIYNSNNQKIVNLKEKVAQLEAQCQEPCKDTVQIHDITGKDCQDIANKGAKQSGLYFIKPLKANQQFLVYCEIDGSGNGWTVFQKRLDGSVDFKKNWIQYKEGFGHLSPTGTTEFWLGNEKIHLISTQSAIPYALRVELEDWNGRTSTADYAMFKVGPEADKYRLTYAYFAGGDAGDAFDGFDFGDDPSDKFFTSHNGMQFSTWDNDNDKFEGNCAEQDGSGWWMNKCHAGHLNGVYYQGGTYSKASTPNGYDNGIIWATWKTRWYSMKKTTMKIIPFNRLTIGEGQQHHLGGAKQAGDV
notes: Soluble plasma fibrinogen flowed over the Biacore chip; also called free fibrinogen
B6: L100 (HPG conjugate with 100 L-peptides per HPG) (other)
peptide: CGGGGGGSHAYIGLKDR
modifications: also: coupled via vinyl sulfone to 500 kDa hyperbranched polyglycerol (HPG), about 100 peptides per HPG

Tests used:
GPIb on human platelets [1] = biological target: T1, GPIb on human platelets (human, UniProt P07359 17-652; P13224 26-206); test: conclusion from inhibition of vWf binding to platelets, flow cytometry
T1 construct: whole, on cells; also called platelet GPIb

GPIb on human platelets [2] = biological target: T1, GPIb on human platelets; test: inhibition of vWf binding to platelets in PRP, flow cytometry (FITC anti-human vWf)
Procedure: In order to prepare human platelets for testing, as approved by Canadian Blood Services' Ethics Board, samples of whole blood were drawn from healthy, consenting donors into 2.7-4.0 mL citrated tubes (BD, USA). Platelet rich plasma (PRP) was prepared from whole blood by centrifugation in a Beckman (CS-6R) bench-top centrifuge (r=203.57 mm, Beckman Coulter, USA) 164×g for 15 minutes. PRP from a number of unrelated donors were evaluated on an Adiva 120 Hematology Analyzer (Bayer, Canada) and standardized to a concentration of 300×10⁹ platelets/L in HEPES buffered saline (HBS, 10 mM HEPES, 150 mM NaCl, pH 7.4).
Thereafter the samples were diluted and fixed with 1.0 mL 0.2% formolsaline (0.2% formaldehyde, 150 mM NaCl, pH 7.20) before analysis on a FACS Canto flow cytometer (BD, USA).

GPIb on human platelets [3] = biological target: T1, GPIb on human platelets; test: cell-based or functional assay
fibrinogen = biological target: B5; test: SPR (Biacore), peptide-PEG-biotin on streptavidin chip, fibrinogen in flow, Langmuir analysis
Description: In this case, peptides known to interfere with fibrinogen-GPIIbIIIa interaction were synthesized, and coupled to the end of a long (3400 MW) PEG molecule whose other end was attached to biotin, as illustrated schematically in FIG. 7. As is known in the art, fibrinogen is a soluble protein in the blood plasma essential for clotting of blood which the enzyme thrombin converts into the insoluble protein fibrin. As shown schematically in FIG. 7, the biotin molecule was used to tether down the peptide-PEG onto a streptavidin-modified Biacore chip. This allowed the GPIIbIIIa mimicking peptide to be hanging off the free end of the PEG.
By allowing free fibrinogen to flow past the peptide, the binding kinetics (i.e., the “on/off rate”) between fibrinogen and the peptides were measured. Then, the fibrinogen was released from the peptide. Using several fibrinogen concentrations, it was possible to measure the KD of the binding interaction between the peptide and the fibrinogen.

[4] = biological target: von Willebrand factor (vWf) (human) (UniProt P04275); test: cell-based or functional assay
wild-type GPIIbIIIa = biological target: T2, wild-type GPIIbIIIa (UniProt P08514 32-1039; P05106 27-788, limits assumed); test: not stated (comparison value given with the SPR results)
T2 construct: also called wild-type GPIIaIIIb (so in the source); integrin alphaIIbbeta3

| Peptide Concentration at Ic50 (GPIb on human platelets [2]) [µM] | Aggregometry % Aggregation on Activation (GPIb on human platelets [3]) [%] | Binder | other results |
| --- | --- | --- | --- |
|  |  | SHAYIGLKDR [SHAYIGLKDR (SEQ ID NO:8)] | binding result (GPIb on human platelets [1]): binds |
| 48 | 5 | CGGGGGGSHAYIGLKDR (L-amino acids; free peptide) [L-CGGGGGGSHAYIGLKDR (L-peptide)] | IC50 (GPIb on human platelets [2]): 48 µM |
| 34 | 5 | B1 | IC50 (GPIb on human platelets [2]): 34 µM |
| 22 | 5 | B2 |  |
|  | 78 | [dC]GGGGGG[dR][dD][dK][dL]G[dI][dY][dA][dH][dS] (not fully specified) [D-… (D-retro peptide; SEQ ID NO:12)] |  |
|  |  | EHIPA (also: coupled to PEG 3400 carrying biotin, coupled end not given here, also called B-peptide 2) [GPIIbIIIa mimotope peptide 2 (EHIPA)] | Kd (fibrinogen): 0.334 µM |
|  | 5 | B3 |  |
|  |  | [dR][dS][dA][dR][dM][dQ][dV][dC][dW][dN][dA][dF][dK][dN][dR] [D-pep3 (…)] | % agglutination of washed platelets at 10 minutes, ristocetin, aggregometry, 0.1 mg/mL D-pep3 (buffer 66%, BSA 55%) [4]: 69%; % agglutination of washed platelets at 10 minutes, ristocetin, aggregometry, 0.25 mg/mL D-pep3 (buffer 66%, BSA 55%) [4]: 28%; % agglutination of washed platelets at 10 minutes, ristocetin, aggregometry, 0.5 mg/mL D-pep3 (buffer 66%, BSA 55%) [4]: 13% |
| 41 | 5 | B4 |  |
|  |  | APLHK (also: coupled to PEG 3400 carrying biotin, coupled end not given here, also called A-peptide 1) [GPIIbIIIa mimotope peptide 1 (APLHK)] | Kd (fibrinogen): 12.5 µM |
|  |  | B5 | Kd (wild-type GPIIbIIIa): 0.103 µM |
|  | 5 | B6 |  |
